Results on one molecule are retold here after publication PMC7558290, “Evaluation on Elongation Factor 1 Alpha of Entamoeba histolytica Interaction with the Intermediate Subunit of the Gal/GalNAc Lectin and Actin in Phagocytosis” (Pathogens, 2020).

The test addresses T1, recombinant EF1a protein (rEF1a), elongation factor 1 alpha of Entamoeba histolytica (Entamoeba histolytica, UniProt P31018 1-442).
T1 construct: Elongation factor 1 alpha (EF1a) of Entamoeba histolytica
T1 sequence (looked up): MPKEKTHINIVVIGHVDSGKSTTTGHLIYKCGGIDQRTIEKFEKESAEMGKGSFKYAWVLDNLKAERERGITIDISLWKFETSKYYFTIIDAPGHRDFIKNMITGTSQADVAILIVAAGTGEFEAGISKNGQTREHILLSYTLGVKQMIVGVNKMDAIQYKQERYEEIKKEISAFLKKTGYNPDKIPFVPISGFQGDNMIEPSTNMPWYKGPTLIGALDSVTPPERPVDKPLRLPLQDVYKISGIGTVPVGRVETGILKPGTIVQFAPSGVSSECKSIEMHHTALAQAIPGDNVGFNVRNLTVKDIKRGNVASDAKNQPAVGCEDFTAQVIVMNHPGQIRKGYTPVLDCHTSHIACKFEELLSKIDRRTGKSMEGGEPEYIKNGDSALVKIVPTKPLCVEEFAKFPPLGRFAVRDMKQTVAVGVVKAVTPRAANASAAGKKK
Put plainly: BLI; Octet-Red96; Igl-C (30 ug/mL, sodium acetate pH 4.0) or BSA (sodium acetate pH 5.0) immobilised on activated AR2G biosensors; rEF1a as analyte, twofold dilutions 4000 to 250 nM; running buffer pH 7.4, 1x Kinetics buffer, 30 °C; 1:1 binding model. As to conditions: both partners purified. For orientation: Biolayer interferometry detects binding as a change in optical thickness at a sensor tip.

B1: C-terminal fragment of the intermediate subunit of the Gal/GalNAc lectin (Igl-C) (domain or fragment)
chain: EGPNAEDKKKSCAQLNNNCKKEGKYEISDGFVTCLDCDDSAYIVGSQVGACTQCSPNAFKDENNKCQLCSTKQSQYGHCAACSATACITCEDINLILTGEKPCTVCKDGFYQIENATDGVYCSPCPAKCKTCKYNTTSKKVECVTCTEQRLKDIKAPECACPTGTVQLENGTCQSCSDLSKYPGCKKTDSCNVDSRTGFIYATECSDGFSGRSPYSNCTTCTKSNYYPKEGEKNGCAKCDDKCATCSDKDTCLTCADPLKVGSKCDGCKTGYYMSNGECKPCTNHCSECSSAAECTVCESDTYKVISGNGCNSCVDGFYFDEIKGTCIPCTSPCTKCVGVKKDCEEQETGCNSEKKKIVEECTKCSTKDHIAEVPVNGACVCAYGYVEGTSTEDNKIECQACKAKVNEFCDSCNSKDCLRCNAEYLEAKGGECVCVEGYYTSSWGSCIPCSRHMPHCTKCTGEGECTTCEDGWKLKDGKCNGAKGI
Regarding B1, the Kd was determined as 90.7 nM, the koff worked out at 0.000347 s⁻¹ and the kon was 3810 M⁻¹ s⁻¹.

By Kd is commonly meant the free concentration of one partner at which half of the binding sites on the other are occupied at equilibrium, for simple one-to-one binding. A word on the koff: it is the rate constant with which the complex falls apart. As usually defined, the kon is the second-order rate constant of association.
